Data published in patent publication US20240327497A1.
Where “and” joins values, the source holds several entries; their conditions need not be identical. Equal entries are not always repeated. Each block holds one binder with its values, some of them ahead of it.

Key:
[1] = molecular target: canine FcRn (FcRn large subunit with canine beta-2-microglobulin) (canine); assay: SPR pH 5.5, SASA-Fc captured on BSA, FcRn 200 nM
[2] = molecular target: canine FcRn (FcRn large subunit with canine beta-2-microglobulin) (canine); assay: SPR pH 5.5, SASA-Fc captured on BSA, FcRn 400 nM
[3] = molecular target: canine FcRn (FcRn large subunit with canine beta-2-microglobulin) (canine); assay: SPR pH 5.5, SASA-Fc captured on BSA, FcRn 200 nM; remark: listed apart in the source
[4] = molecular target: canine FcRn (FcRn large subunit with canine beta-2-microglobulin) (canine); assay: SPR pH 5.5, SASA-Fc captured on BSA, FcRn 200 nM; remark: listed apart in the source
[5] = molecular target: canine FcRn (FcRn large subunit with canine beta-2-microglobulin) (canine); assay: SPR pH 5.5, SASA-Fc captured on BSA, FcRn 200 nM; remark: listed apart in the source
[6] = molecular target: canine FcRn (FcRn large subunit with canine beta-2-microglobulin) (canine); assay: SPR pH 5.5, SASA-Fc captured on BSA, FcRn 100-800 nM
[7] = molecular target: canine FcRn (FcRn large subunit with canine beta-2-microglobulin) (canine); assay: SPR pH 5.5, SASA-Fc captured on BSA, FcRn 200 nM; remark: listed apart in the source
[8] = molecular target: canine FcRn (FcRn large subunit with canine beta-2-microglobulin) (canine); assay: SPR pH 5.5, SASA-Fc captured on BSA, FcRn 200 nM; remark: listed apart in the source
[9] = molecular target: canine FcRn (FcRn large subunit with canine beta-2-microglobulin) (canine); assay: SPR pH 5.5, SASA-Fc captured on BSA, FcRn 200 nM; remark: listed apart in the source

- Kd [1]: 1320 nM and 1570 nM
- koff [1]: 0.223 s⁻¹ and 0.239 s⁻¹
- kon [1]: 168000 M⁻¹ s⁻¹ and 152000 M⁻¹ s⁻¹
- Kd [2]: 618 nM and 747 nM
- WT KD Avg/Variant KD [2]: 0.76 and 0.92
- koff [2]: 0.369 s⁻¹ and 0.18 s⁻¹
- kon [2]: 598000 M⁻¹ s⁻¹ and 241000 M⁻¹ s⁻¹
B1: canine IgGB Fc (CH2-CH3) E380A with N-terminal SASA tag (Fc fusion, part only; not given: SASA tag, not shown: another chain or arm of the molecule; small tags and cut ends)
Fc: APEMLGGPSVFIFPPKPKDTLLIARTPEVTCVVVDLDPEDPEVQISWFVDGKQMQTAKTQPREEQFNGTYRVVSVLPIGHQDWLKGKQFTCKVNNKALPSPIERTISKARGQAHQPSVYVLPPSREELSKNTVSLTCLIKDFFPPDIDVAWQSNGQQEPESKYRTTPPQLDEDGSYFLYSKLSVDKSRWQRGDTFICAVMHEALHNHYTQESLSHSPGK

- Kd [3]: 693 nM and 873 nM
- koff [3]: 0.159 s⁻¹ and 0.16 s⁻¹
- kon [3]: 229000 M⁻¹ s⁻¹ and 184000 M⁻¹ s⁻¹
B2: canine IgGB Fc (CH2-CH3) D378V with N-terminal SASA tag (Fc fusion, part only; not given: SASA tag, not shown: another chain or arm of the molecule; small tags and cut ends)
Fc: APEMLGGPSVFIFPPKPKDTLLIARTPEVTCVVVDLDPEDPEVQISWFVDGKQMQTAKTQPREEQFNGTYRVVSVLPIGHQDWLKGKQFTCKVNNKALPSPIERTISKARGQAHQPSVYVLPPSREELSKNTVSLTCLIKDFFPPDIVVEWQSNGQQEPESKYRTTPPQLDEDGSYFLYSKLSVDKSRWQRGDTFICAVMHEALHNHYTQESLSHSPGK

- Kd [4]: 869 nM and 774 nM
- koff [4]: 0.168 s⁻¹ and 0.169 s⁻¹
- kon [4]: 193000 M⁻¹ s⁻¹ and 218000 M⁻¹ s⁻¹
B3: canine IgGB Fc (CH2-CH3) L252M with N-terminal SASA tag (Fc fusion, part only; not given: SASA tag, not shown: another chain or arm of the molecule; small tags and cut ends)
Fc: APEMLGGPSVFIFPPKPKDTLMIARTPEVTCVVVDLDPEDPEVQISWFVDGKQMQTAKTQPREEQFNGTYRVVSVLPIGHQDWLKGKQFTCKVNNKALPSPIERTISKARGQAHQPSVYVLPPSREELSKNTVSLTCLIKDFFPPDIDVEWQSNGQQEPESKYRTTPPQLDEDGSYFLYSKLSVDKSRWQRGDTFICAVMHEALHNHYTQESLSHSPGK

- Kd [5]: 2590 nM and 2840 nM
- koff [5]: 0.258 s⁻¹ and 0.268 s⁻¹
- kon [5]: 99600 M⁻¹ s⁻¹ and 94300 M⁻¹ s⁻¹
B4: canine IgGB Fc (CH2-CH3) T250Q with N-terminal SASA tag (Fc fusion, part only; not given: SASA tag, not shown: another chain or arm of the molecule; small tags and cut ends)
Fc: APEMLGGPSVFIFPPKPKDQLLIARTPEVTCVVVDLDPEDPEVQISWFVDGKQMQTAKTQPREEQFNGTYRVVSVLPIGHQDWLKGKQFTCKVNNKALPSPIERTISKARGQAHQPSVYVLPPSREELSKNTVSLTCLIKDFFPPDIDVEWQSNGQQEPESKYRTTPPQLDEDGSYFLYSKLSVDKSRWQRGDTFICAVMHEALHNHYTQESLSHSPGK

- Kd [5]: 2480 nM and 1660 nM
- koff [5]: 0.284 s⁻¹ and 0.287 s⁻¹
- kon [5]: 114000 M⁻¹ s⁻¹ and 172000 M⁻¹ s⁻¹
B5: canine IgGB Fc (CH2-CH3) T250E with N-terminal SASA tag (Fc fusion, part only; not given: SASA tag, not shown: another chain or arm of the molecule; small tags and cut ends)
Fc: APEMLGGPSVFIFPPKPKDELLIARTPEVTCVVVDLDPEDPEVQISWFVDGKQMQTAKTQPREEQFNGTYRVVSVLPIGHQDWLKGKQFTCKVNNKALPSPIERTISKARGQAHQPSVYVLPPSREELSKNTVSLTCLIKDFFPPDIDVEWQSNGQQEPESKYRTTPPQLDEDGSYFLYSKLSVDKSRWQRGDTFICAVMHEALHNHYTQESLSHSPGK

- Kd [6]: 522 nM
- koff [6]: 0.132 s⁻¹
- kon [6]: 253000 M⁻¹ s⁻¹
- Kd [7]: 182 nM and 181 nM
- koff [7]: 0.143 s⁻¹ and 0.147 s⁻¹
- kon [7]: 786000 M⁻¹ s⁻¹ and 811000 M⁻¹ s⁻¹
B6: canine IgGB Fc (CH2-CH3) A426F with N-terminal SASA tag (Fc fusion, part only; not given: SASA tag, not shown: another chain or arm of the molecule; small tags and cut ends)
Fc: APEMLGGPSVFIFPPKPKDTLLIARTPEVTCVVVDLDPEDPEVQISWFVDGKQMQTAKTQPREEQFNGTYRVVSVLPIGHQDWLKGKQFTCKVNNKALPSPIERTISKARGQAHQPSVYVLPPSREELSKNTVSLTCLIKDFFPPDIDVEWQSNGQQEPESKYRTTPPQLDEDGSYFLYSKLSVDKSRWQRGDTFICFVMHEALHNHYTQESLSHSPGK

- Kd [8]: 573 nM and 629 nM
- koff [8]: 0.156 s⁻¹ and 0.164 s⁻¹
- kon [8]: 272000 M⁻¹ s⁻¹ and 261000 M⁻¹ s⁻¹
- Kd [2]: 457 nM and 494 nM
- WT KD Avg/Variant KD [2]: 1.24 and 1.14
- koff [2]: 0.237 s⁻¹ and 0.477 s⁻¹
- kon [2]: 518000 M⁻¹ s⁻¹ and 966000 M⁻¹ s⁻¹
B7: canine IgGB Fc (CH2-CH3) N434A with N-terminal SASA tag (Fc fusion, part only; not given: SASA tag, not shown: another chain or arm of the molecule; small tags and cut ends)
Fc: APEMLGGPSVFIFPPKPKDTLLIARTPEVTCVVVDLDPEDPEVQISWFVDGKQMQTAKTQPREEQFNGTYRVVSVLPIGHQDWLKGKQFTCKVNNKALPSPIERTISKARGQAHQPSVYVLPPSREELSKNTVSLTCLIKDFFPPDIDVEWQSNGQQEPESKYRTTPPQLDEDGSYFLYSKLSVDKSRWQRGDTFICAVMHEALHAHYTQESLSHSPGK

- Kd [9]: 372 nM and 439 nM
- koff [9]: 0.566 s⁻¹ and 0.696 s⁻¹
- kon [9]: 1.52e+06 M⁻¹ s⁻¹ and 1.59e+06 M⁻¹ s⁻¹
B8: canine IgGB Fc (CH2-CH3) Q311V with N-terminal SASA tag (Fc fusion, part only; not given: SASA tag, not shown: another chain or arm of the molecule; small tags and cut ends)
Fc: APEMLGGPSVFIFPPKPKDTLLIARTPEVTCVVVDLDPEDPEVQISWFVDGKQMQTAKTQPREEQFNGTYRVVSVLPIGHVDWLKGKQFTCKVNNKALPSPIERTISKARGQAHQPSVYVLPPSREELSKNTVSLTCLIKDFFPPDIDVEWQSNGQQEPESKYRTTPPQLDEDGSYFLYSKLSVDKSRWQRGDTFICAVMHEALHNHYTQESLSHSPGK
